Measured values from paper PMC3699901 (Journal of molecular biology, 2013).
Blank lines part the entries; values can stand above or below the binder they belong to. Ends that are not written are not given here. * marks the point of attachment. 5FAM = O=C1OC2(c3ccc(O)cc3Oc3cc(O)ccc32)c2ccc(C(=O)*)cc21

B1: fluorescein labeled SRC-1 peptide (5-FAM-[residues removed]), residues 676-700 (peptide)
peptide: 5FAM-CPSSHSSLTERHKILHRLLQEGSPS

Assays:
[1] = biological target: T1, wild-type RXRα LBD without the fused coactivator peptide (human, UniProt P19793 227-462); test: fluorescence polarisation
T1 sequence (looked up): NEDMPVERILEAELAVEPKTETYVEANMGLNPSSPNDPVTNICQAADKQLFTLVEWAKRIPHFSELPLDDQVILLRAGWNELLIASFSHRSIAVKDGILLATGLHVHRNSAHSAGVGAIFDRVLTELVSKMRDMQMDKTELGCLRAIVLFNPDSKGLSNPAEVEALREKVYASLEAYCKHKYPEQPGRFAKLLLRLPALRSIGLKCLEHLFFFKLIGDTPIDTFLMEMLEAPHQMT

[2] = biological target: T2, wild-type PXR LBD without the fused coactivator peptide (human, UniProt O75469 130-434); test: fluorescence polarisation
T2 sequence (looked up): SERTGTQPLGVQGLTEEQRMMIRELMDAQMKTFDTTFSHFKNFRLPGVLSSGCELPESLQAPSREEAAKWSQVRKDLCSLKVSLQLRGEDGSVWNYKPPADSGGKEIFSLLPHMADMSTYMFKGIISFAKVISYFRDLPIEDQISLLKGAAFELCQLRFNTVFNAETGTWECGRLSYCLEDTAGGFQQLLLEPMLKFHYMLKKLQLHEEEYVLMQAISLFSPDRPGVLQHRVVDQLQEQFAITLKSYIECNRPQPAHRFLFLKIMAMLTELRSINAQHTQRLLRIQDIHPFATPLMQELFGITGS

[3] = biological target: B1; test: fluorescence polarisation
[4] = biological target: T3, PXR LBD (residues 130-434), the LBD part of the crystallised fusion chain (human, UniProt O75469 130-434); test: crystal structure
T3 sequence (looked up): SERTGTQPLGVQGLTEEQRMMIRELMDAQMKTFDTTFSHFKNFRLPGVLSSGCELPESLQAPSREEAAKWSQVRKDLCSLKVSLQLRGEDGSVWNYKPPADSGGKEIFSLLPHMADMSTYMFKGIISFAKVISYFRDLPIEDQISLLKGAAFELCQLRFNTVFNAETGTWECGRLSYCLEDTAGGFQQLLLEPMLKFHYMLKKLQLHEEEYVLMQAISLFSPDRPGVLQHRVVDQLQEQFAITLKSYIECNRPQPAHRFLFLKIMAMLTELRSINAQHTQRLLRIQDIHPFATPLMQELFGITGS

[5] = biological target: T4, RXRα LBD (residues 227-462), the LBD part of the crystallised fusion chain (human, UniProt P19793 227-462); test: crystal structure
T4 sequence (looked up): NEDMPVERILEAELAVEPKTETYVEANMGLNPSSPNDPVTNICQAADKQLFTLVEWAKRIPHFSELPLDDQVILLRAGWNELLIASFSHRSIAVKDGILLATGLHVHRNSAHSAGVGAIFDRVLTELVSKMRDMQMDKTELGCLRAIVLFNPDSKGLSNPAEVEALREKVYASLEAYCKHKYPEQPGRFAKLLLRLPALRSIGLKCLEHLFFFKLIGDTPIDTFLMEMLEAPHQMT

Binder: B1
Kd [1]: 1560 ± 198 nM | Kd [2]: 1180 ± 92.2 nM

B2: PXR/RXRα LBD heterotetramer complex of SRC-1 fused PXR LBD with unfused RXRα LBD (complex, human)
chain 1: NEDMPVERILEAELAVEPKTETYVEANMGLNPSSPNDPVTNICQAADKQLFTLVEWAKRIPHFSELPLDDQVILLRAGWNELLIASFSHRSIAVKDGILLATGLHVHRNSAHSAGVGAIFDRVLTELVSKMRDMQMDKTELGCLRAIVLFNPDSKGLSNPAEVEALREKVYASLEAYCKHKYPEQPGRFAKLLLRLPALRSIGLKCLEHLFFFKLIGDTPIDTFLMEMLEAPHQMT
chain 2: SERTGTQPLGVQGLTEEQRMMIRELMDAQMKTFDTTFSHFKNFRLPGVLSSGCELPESLQAPSREEAAKWSQVRKDLCSLKVSLQLRGEDGSVWNYKPPADSGGKEIFSLLPHMADMSTYMFKGIISFAKVISYFRDLPIEDQISLLKGAAFELCQLRFNTVFNAETGTWECGRLSYCLEDTAGGFQQLLLEPMLKFHYMLKKLQLHEEEYVLMQAISLFSPDRPGVLQHRVVDQLQEQFAITLKSYIECNRPQPAHRFLFLKIMAMLTELRSINAQHTQRLLRIQDIHPFATPLMQELFGITGSGGSGGSSHSSLTERHKILHRLLQEGSPS
Kd [3]: 778 ± 88.8 nM

Further lines, results first:

Kd [3]: 588 ± 29.7 nM
B3: PXR/RXRα LBD heterotetramer complex of unfused PXR LBD with SRC-1-fused RXRα LBD (complex, human)
chain 1: SERTGTQPLGVQGLTEEQRMMIRELMDAQMKTFDTTFSHFKNFRLPGVLSSGCELPESLQAPSREEAAKWSQVRKDLCSLKVSLQLRGEDGSVWNYKPPADSGGKEIFSLLPHMADMSTYMFKGIISFAKVISYFRDLPIEDQISLLKGAAFELCQLRFNTVFNAETGTWECGRLSYCLEDTAGGFQQLLLEPMLKFHYMLKKLQLHEEEYVLMQAISLFSPDRPGVLQHRVVDQLQEQFAITLKSYIECNRPQPAHRFLFLKIMAMLTELRSINAQHTQRLLRIQDIHPFATPLMQELFGITGS
chain 2: NEDMPVERILEAELAVEPKTETYVEANMGLNPSSPNDPVTNICQAADKQLFTLVEWAKRIPHFSELPLDDQVILLRAGWNELLIASFSHRSIAVKDGILLATGLHVHRNSAHSAGVGAIFDRVLTELVSKMRDMQMDKTELGCLRAIVLFNPDSKGLSNPAEVEALREKVYASLEAYCKHKYPEQPGRFAKLLLRLPALRSIGLKCLEHLFFFKLIGDTPIDTFLMEMLEAPHQMTGGSGGSSHSSLTERHKILHRLLQEGSPS

binding result [4]: binds | binding result [5]: binds
B4: human SRC-1 coactivator fragment (residues 678-700), as it stands fused to the C-termini of the crystallised LBDs (peptide)
peptide: SSHSSLTERHKILHRLLQEGSPS
